T1: hIL-18 receptor (hIL-18Rα and hIL-18Rβ) (human, UniProt Q13478 19-541; O95256 20-599)
T1 sequence (looked up) 1: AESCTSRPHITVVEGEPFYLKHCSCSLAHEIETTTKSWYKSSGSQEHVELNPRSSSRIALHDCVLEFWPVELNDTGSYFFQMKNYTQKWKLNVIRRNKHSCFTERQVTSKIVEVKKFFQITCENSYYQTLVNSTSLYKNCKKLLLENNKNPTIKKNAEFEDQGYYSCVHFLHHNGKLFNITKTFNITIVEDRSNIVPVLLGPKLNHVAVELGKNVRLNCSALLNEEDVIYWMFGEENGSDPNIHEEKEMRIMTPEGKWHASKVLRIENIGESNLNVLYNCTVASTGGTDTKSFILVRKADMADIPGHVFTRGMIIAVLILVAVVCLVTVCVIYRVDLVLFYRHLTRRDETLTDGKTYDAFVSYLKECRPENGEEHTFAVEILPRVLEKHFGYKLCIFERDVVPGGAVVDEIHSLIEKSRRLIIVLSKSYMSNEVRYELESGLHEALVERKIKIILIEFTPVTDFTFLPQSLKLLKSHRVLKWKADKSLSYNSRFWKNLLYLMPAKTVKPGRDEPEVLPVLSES
T1 sequence (looked up) 2: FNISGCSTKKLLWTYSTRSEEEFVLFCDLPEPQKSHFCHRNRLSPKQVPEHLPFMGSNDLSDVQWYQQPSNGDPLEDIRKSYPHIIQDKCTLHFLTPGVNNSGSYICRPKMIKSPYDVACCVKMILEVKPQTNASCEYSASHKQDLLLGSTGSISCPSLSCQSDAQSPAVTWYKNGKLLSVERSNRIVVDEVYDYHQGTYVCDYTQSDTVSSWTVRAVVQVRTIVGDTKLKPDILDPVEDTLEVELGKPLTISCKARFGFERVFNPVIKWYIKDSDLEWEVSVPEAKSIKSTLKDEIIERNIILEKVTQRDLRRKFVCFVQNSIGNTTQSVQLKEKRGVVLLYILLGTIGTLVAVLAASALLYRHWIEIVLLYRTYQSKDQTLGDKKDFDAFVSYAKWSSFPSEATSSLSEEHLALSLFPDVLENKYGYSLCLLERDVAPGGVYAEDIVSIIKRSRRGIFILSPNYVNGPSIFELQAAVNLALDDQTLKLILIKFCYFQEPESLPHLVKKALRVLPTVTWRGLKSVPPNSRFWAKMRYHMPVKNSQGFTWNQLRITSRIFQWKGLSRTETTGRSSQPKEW

T2: hIL-18BP-hFc (human, UniProt O95998 31-194, limits assumed)
T2 sequence (looked up): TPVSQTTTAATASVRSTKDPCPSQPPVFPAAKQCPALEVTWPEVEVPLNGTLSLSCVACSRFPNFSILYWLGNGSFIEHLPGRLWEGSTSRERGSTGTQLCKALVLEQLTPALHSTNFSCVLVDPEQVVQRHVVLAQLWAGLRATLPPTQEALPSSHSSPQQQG


Assays:
Assay in all cases: cell-based or functional assay
[1] = biological target: T1, hIL-18 receptor (hIL-18Rα and hIL-18Rβ)
hIL-18BP-hFc [2] = biological target: T2, hIL-18BP-hFc
[3] = biological target: T1, hIL-18 receptor (hIL-18Rα and hIL-18Rβ); remark: listed apart in the source
hIL-18BP-hFc [4] = biological target: T2, hIL-18BP-hFc; remark: listed apart in the source

Row | Binder | EC50 (nM), hIL-18 reporter assay [1] [nM] | EC50 (nM) in the Presence of 1 µg/mL hIL-18BP-hFc, hIL-18 reporter assay (hIL-18BP-hFc [2]) [nM] | EC50 Fold Change (+BP/-BP), hIL-18 reporter assay (hIL-18BP-hFc [2]) [fold] | EC50 (nM), PBMC assay (hIFNγ release) [3] [nM] | EC50 (nM) in the Presence of 1 µg/mL hIL-18BP-hFc, PBMC assay (hIFNγ release) (hIL-18BP-hFc [4]) [nM] | EC50 Fold Change (+BP/-BP), PBMC assay (hIFNγ release) (hIL-18BP-hFc [4]) [fold]
1 | IL-18 variant polypeptide M29 (ligand) YFPKLMSKLSVIRNLNDQVLFIDQGNRPLFEDMTDSDCRDNAPRTIFIISMYKFSDRRGMAVTISVKCEKISTLSCENKIISFKEMNPPDPIKDTKSDIIFFQRSVPGHDNKMQFESSSYEGYFLACEKERDLFKLILKKEDELGDRSIMFTVQNED | 4.8 | 1.9 | 0.4 | 0.14 | 0.096 | 0.69
2 | IL-18 variant polypeptide M13 (ligand) YFPKLKSKLSVIRNLNDQVLFIDQGNRPLFEDMTDSDCRDNAPRTIFIISMYKQSIWRGMAVTISVKCEKISTLSCENKIISFKEMNPPDNIKDTKSDIIFFQRSVPGHDNKMQFESSSYEGYFLACEKERDLFKLILKKEDELGDRSIMFTVQNED | 0.035 | 0.026 | 0.74 | 0.02 | 0.025 | 1.25
3 | IL-18 variant polypeptide M32 (ligand) YFPKLGSKLSVIRNLNDQVLFIDQGNRPLFEDMTDSDCRDNAPRTIFIISMYKSSSRRGMAVTISVKCEKISTLSCENKIISFKEMNPPDNIKDTKSDIIFFQRSVPGHDNKMQFESSSYEGYFLACEKERDLFKLILKKEDELGDRSIMFTVQNED | 5.9 | 4.1 | 0.69 | 0.13 | 0.1 | 0.77
4 | IL-18 variant polypeptide M17 (ligand) YFPKLRSKLSVIRNLNDQVLFIDQGNRPLFEDMTDSDCRDNAPRTIFIISMYKLSTARGMAVTISVKCEKISTLSCENKIISFKEMNPPDGIKDTKSDIIFFQRSVPGHDNKMQFESSSYEGYFLACEKERDLFKLILKKEDELGDRSIMFTVQNED | 0.41 | 0.32 | 0.78 | 0.13 | 0.13 | 1
5 | IL-18 variant polypeptide M15 (ligand) YFPKLRSKLSVIRNLNDQVLFIDQGNRPLFEDMTDSDCRDNAPRTIFIISMYKSSYTRGMAVTISVKCEKISTLSCENKIISFKEMNPPDGIKDTKSDIIFFQRSVPGHDNKMQFESSSYEGYFLACEKERDLFKLILKKEDELGDRSIMFTVQNED | 0.13 | 0.12 | 0.92 | 0.049 | 0.036 | 0.73
6 | IL-18 variant polypeptide WM10 (ligand) YFPKLKSKLSVIRNLNDQVLFIDQGNRPLFEDMTDSDCRDNAPRTIFIISMYKDSQPRGMAVTISVKCEKISTLSCENKIISFKEMNPPDSIKDTKSDIIFFQRSVPGHDNKMQFESSSYEGYFLACEKERDLFKLILKKEDELGDRSIMFTVQNED | 14.7 | 15.6 | 1.06 | 0.53 | 0.44 | 0.83
